Reference: article PMC3215728

Columns and labels:
[1] = molecular target: CFP-dysferlin / YFP-dysferlin (full-length human dysferlin) expressed in HEK293 cells (human) (UniProt O75923); assay: fluorescence correlation spectroscopy (FCS); YFP-dysferlin diffusing in detergent solution, Triton X-100; 2-species fit; settings: remark: other sources report otherwise
[2] = molecular target: CFP-dysferlin / YFP-dysferlin (full-length human dysferlin) expressed in HEK293 cells (human) (UniProt O75923); assay: FRET or BRET; three-cube fluorescence microscopy (E-FRET), pixel by pixel, CFP-dysferlin and YFP-dysferlin in living HEK293 cells; settings: remark: other sources report otherwise
[3] = molecular target: CFP-dysferlin / YFP-dysferlin (full-length human dysferlin) expressed in HEK293 cells (human) (UniProt O75923); assay: photon counting histogram (PCH); detergent solubilized YFP-dysferlin in CHAPS or DDM; molecular brightness normalised to monomeric YFP; settings: remark: other sources report otherwise
[4] = molecular target: CFP-dysferlin / YFP-dysferlin (full-length human dysferlin) expressed in HEK293 cells (human) (UniProt O75923); assay: fluorescence correlation spectroscopy (FCS); YFP-dysferlin diffusing in detergent solution, 1% CHAPS or 0.5% DDM; single species diffusion model; settings: remark: other sources report otherwise
[5] = molecular target: CFP-dysferlin / YFP-dysferlin (full-length human dysferlin) expressed in HEK293 cells (human) (UniProt O75923); assay: FRET or BRET; acceptor-selective photobleaching FRET between CFP- and YFP-tagged copies in living HEK293 cells; linearity of donor against acceptor for stoichiometry; hyperbolic fit of FRET against YFP intensity gives FRETmax and KD in arbitrary units; settings: remark: other sources report otherwise
[6] = molecular target: Endogenous dysferlin from rabbit skeletal muscle (rabbit (endogenous in skeletal muscle)); assay: cross-linking; rabbit skeletal muscle microsomes with or without 100 µM o-PDM on ice for 30 min; SDS-PAGE and western blot
[7] = molecular target: CFP-dysferlin / YFP-dysferlin (full-length human dysferlin) expressed in mouse FDB muscle fibers (human) (UniProt O75923); assay: FRET or BRET; acceptor-selective photobleaching FRET between CFP-dysferlin and YFP-dysferlin in living FDB muscle fibers isolated from electroporated dysferlin-deficient mice; settings: remark: other sources report otherwise
[8] = molecular target: His6-tagged dysferlin (human) (UniProt O75923); assay: SEC; Superose 6 HR 10/30 FPLC; mobile phase 1% CHAPS, 150 mM NaCl, 50 mM Tris pH 7.5, 0.4 ml/min; fractions blotted with Hamlet antibody; monomer to dimer; settings: remark: other sources report otherwise

CFP-dysferlin / YFP-dysferlin (full-length human dysferlin) expressed in HEK293 cells, O75923 1-2080
percent of molecules diffusing as the slower (dimer) species [1]: 17% | FRET efficiency [2]: 20.6% | stoichiometry N [3]: 2 | stoichiometry N [4]: 2 | FRETmax [5]: 26.8% | stoichiometry N [5]: 2

Endogenous dysferlin from rabbit skeletal muscle (natural protein)
stoichiometry N [6]: 2

CFP-dysferlin / YFP-dysferlin (full-length human dysferlin) expressed in mouse FDB muscle fibers, O75923 1-2080
FRETmax [7]: 33.3% | stoichiometry N [7]: 2

His6-tagged dysferlin, O75923 1-2080
stoichiometry N [8]: 2
